# Assay results reported in patent US6884879.
# T1: VEGF121 (human, UniProt P15692-9 27-147)
# T1 construct: also called Purified VEGF121
# T1 sequence (looked up): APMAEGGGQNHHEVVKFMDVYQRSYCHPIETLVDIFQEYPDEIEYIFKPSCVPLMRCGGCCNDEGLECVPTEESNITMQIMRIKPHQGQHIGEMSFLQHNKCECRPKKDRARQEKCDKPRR
# What was measured:
# [1] = target: T2, VEGF (human, UniProt P15692-4 27-191, limits assumed); assay: competition ELISA (VEGF/KDR-IgG)
# T2 construct: also called human VEGF; biotinylated VEGF
# Protocol: (§1) Diluted conditioned medium containing 3 ng/ml of KDR-IgG (Park et al., J. Biol. Chem. 269:25646–[…] (1994)) in blocking buffer were incubated on the plate for 1 h. […] The solutions from the tubes were then transferred to the ELISA plates and incubated for 1 h. […] Titration curves were fit with a four-parameter nonlinear regression curve-fitting program (KaleidaGraph, Synergy Software, Reading Pa.). […] Assays for full-length IgG were the same as for the F(ab)s except that the assay buffer contained 10% human serum.
# [2] = target: T2, VEGF; assay: competition ELISA: biotinylated VEGF preincubated with F(ab), capture on KDR-IgG
# Protocol: as §1
# [3] = target: T1, VEGF121; assay: BIAcore SPR, VEGF121 immobilized, Fab in solution
# Protocol: (§2) Binding of humanized A4.6.1 Fab variants was measured by flowing solutions of Fab in PBS/0.05% TWEEN 20™ over the chip at a flow rate of 20 μL/min. Following each binding measurement, residual Fab was stripped from the immobilized ligand by washing with 5 μL of 50 mM aqueous HCl at 3 μL/min. Binding profiles were analyzed by nonlinear regression using a simple monovalent binding model (BIAevaluation software v2.0; Pharmacia).
# [4] = target: T1, VEGF121; assay: BIAcore SPR, VEGF121 immobilized
# Protocol: as §2
# [5] = target: T2, VEGF; assay: competition ELISA: biotinylated VEGF preincubated with IgG, capture on KDR-IgG, 10% human serum
# Protocol: as §1
# [c]murIgG1 is muMAbVEGF A461 purified from ascites.
# [6] = target: rhVEGF165 (human, UniProt P15692 27-191, limits assumed); assay: cell-based or functional assay
binder,measurement,setting,value
"F(ab)-4 (Fab, V domains shown, F(ab)-1 with ArgH71Leu and AsnH73Thr; human CL and CH1) VH: EVQLVESGGGLVQPGGSLRLSCAASGYTFTNYGMNWVRQAPGKGLEWVGWINTYTGEPTYAADFKRRFTISLDTSKNTLYLQMNSLRAEDTAVYYCARYPHYYGSSHWYFDVWGQGTLVTVSS VL: DIQMTQSPSSLSASVGDRVTITCSASQDISNYLNWYQQKPGKAPKLLIYFTSSLHSGVPSRFSGSGSGTDFTLTISSLQPEDFATYYCQQYSTVPWTFGQGTKVEIK",fold improvement of binding against F(ab)-1,[1],4 fold
same,EC50 F(ab)-X / EC50 chimeric F(ab),[2],> 295 ratio
"F(ab)-3 (Fab, V domains shown) VH: EIQLVQSGPELKQPGETVRISCKASGYTFTNYGMNWVKQAPGKGLKWMGWINTYTGEPTYAADFKRRFTFSLETSASTAYLQISNLKNDDTATYFCAKYPHYYGSSHWYFDVWGAGTTVTVSS VL: DIQMTQSPSSLSASVGDRVTITCSASQDISNYLNWYQQKPGKAPKLLIYFTSSLHSGVPSRFSGSGSGTDFTLTISSLQPEDFATYYCQQYSTVPWTFGQGTKVEIK",EC50 F(ab)-X / EC50 chimeric F(ab),[2],2.6 ratio
"hu2.10 (Fab, V domains shown, Phage-selected consensus clone, tested as soluble Fab; also called consensus clone hu2.10) VH: EVQLVESGGGLVQPGGSLRLSCAASGYTFTNYGMNWIRQAPGKGLEWVGWINTYTGEPTYAADFKRRFTISLDTSASTVYLQMNSLRAEDTAVYYCAKYPHYYGSSHWYFDVWGQGTLVTVSS VL: DIQMTQSPSSLSASVGDRVTITCSASQDISNYLNWYQQKPGKAPKLLIYFTSSLHSGVPSRFSGSGSGTDYTLTISSLQPEDFATYYCQQYSTVPWTFGQGTKVEIK",KD(A4.6.1)/KD(mut) as headed; fold weaker than the A4.6.1 chimera,[3],35 ratio
"hu2.10V (Fab, V domains shown, hu2.10 with Leu to Val at VL 46; soluble Fab) VH: EVQLVESGGGLVQPGGSLRLSCAASGYTFTNYGMNWIRQAPGKGLEWVGWINTYTGEPTYAADFKRRFTISLDTSASTVYLQMNSLRAEDTAVYYCAKYPHYYGSSHWYFDVWGQGTLVTVSS VL: DIQMTQSPSSLSASVGDRVTITCSASQDISNYLNWYQQKPGKAPKVLIYFTSSLHSGVPSRFSGSGSGTDYTLTISSLQPEDFATYYCQQYSTVPWTFGQGTKVEIK",fold improvement of KD against hu2.10,[4],6 fold
same,KD(A4.6.1)/KD(mut) as headed; fold weaker than the A4.6.1 chimera,[3],5.8 ratio
"chimeric IgG1 (antibody, V domains shown, Murine A4.6.1 VL and VH fused to human kappa CL and human IgG1 heavy chain constant domains; also called chIgG1; chlgG1) VH: EIQLVQSGPELKQPGETVRISCKASGYTFTNYGMNWVKQAPGKGLKWMGWINTYTGEPTYAADFKRRFTFSLETSASTAYLQISNLKNDDTATYFCAKYPHYYGSSHWYFDVWGAGTTVTVSS VL: DIQMTQTTSSLSASLGDRVIISCSASQDISNYLNWYQQKPDGTVKVLIYFTSSLHSGVPSRFSGSGSGTDYSLTISNLEPEDIATYYCQQYSTVPWTFGGGTKLEIKR",IgG1/chlgG1 (ratio of EC50),[5],1 ratio
"muMAb VEGF A.4.6.1 (antibody, V domains shown, Original murine IgG1 purified from ascites; also called murIgG1; murlgG1) VH: EIQLVQSGPELKQPGETVRISCKASGYTFTNYGMNWVKQAPGKGLKWMGWINTYTGEPTYAADFKRRFTFSLETSASTAYLQISNLKNDDTATYFCAKYPHYYGSSHWYFDVWGAGTTVTVSS VL: DIQMTQTTSSLSASLGDRVIISCSASQDISNYLNWYQQKPDGTVKVLIYFTSSLHSGVPSRFSGSGSGTDYSLTISNLEPEDIATYYCQQYSTVPWTFGGGTKLEIKR",IgG1/chlgG1 (ratio of EC50),[5],0.759 ratio
"Y0313-1 (Fab, V domains shown) VH: EVQLVESGGGLVQPGGSLRLSCAASGYDFTHYGMNWVRQAPGKGLEWVGWINTYTGEPTYAADFKRRFTFSLDTSKSTAYLQMNSLRAEDTAVYYCAKYPYYYGTSHWYFDVWGQGTL VL: DIQLTQSPSSLSASVGDRVTITCRANEQLSNYLNWYQQKPGKAPKVLIYFTSSLHSGVPSRFSGSGSGTDFTLTISSLQPEDFATYYCQQYSTVPWTFGQGTKVEIKR",potency in the HuVEC assay against the wild-type Fab (Y0192),[6],30 fold
